Experimental findings from patent US7312323B2, “Enzymes and polynucleotides encoding the same” (The Horticulture and Food Research Institute of New Zealand …, priority 2002, dated 2007) are described below.

In the series the target is Germacrene D synthase (Actinidia deliciosa, UniProt Q32W37). The experiment in a line: Kinetic studies with 3H-FDP, pentane overlay scintillation assay. The following applies: for effect of added ions on activity: 50 mM KCl or NaCl. The series is classed as biochemical. The procedure:
Optimisation of large-scale production of protein and protein kinetics: E. coli BL21-PlusTM-RIL cells harbouring pET-30a75565 were grown overnight at 37° C. in Lauria-Bertani media supplemented with 30 μg ml^-1 kanamycin and 34 μg ml chloramphenicol^-1. 5 mL aliquots of overnight culture were used to inoculate 4×300 mL of fresh 2× YT medium supplemented with 30 μg ml^-1 […] 34 μg ml^-1 chloramphenicol in 1 L baffled flasks. Cultures were grown at 37° C. with vigorous agitation to A600=0.8, then removed to 4° C. to equilibrate to 16° C. before induction with 0.3 mM IPTG. Induced cultures were then incubated at 16° C. and 220 rpm for a further 72 hours. Cells were pelleted by centrifugation (2500×g; 10 min) and stored overnight at -20° C. The following day cell pellets were resuspended in 20 mL His6 binding buffer and cells were disrupted by 2 passes through an EmulsiFlex®-C15 high-pressure homogeniser (Avestin) with a pressure setting between 15000-20000 psi. Cell debris was pelleted by centrifugation 2× at 10000×g for 15 min; 4° C. (Sorval SS34 rotor). […] Filtered extract was desalted and passed over a Nickel affinity column. Concentration of the recombinant synthase in the purified protein extracts was estimated from SDS-PAGE gels by comparing against a BenchMarkTM Protein Ladder (Invitrogen). Purified extracts were adjusted to a workable concentration with His6 elution buffer (without Imidazole) containing 10% glycerol and 1 mM DTT. The extract was then separated into 100 μl aliquots and stored at -80° C. until required. […] Kinetic Studies: […] Tritiated FDP was added variously depending on the experiment. One mL assays containing 100-150 ng of the recombinant synthase were overlaid with 0.6 mL pentane and incubated in 1.5 mL microfuge tubes for 2 hours at 30° C. and 150 rpm. All assays were performed in triplicate. Following incubation assays were immediately placed on ice and a 200 μL aliquot of the pentane layer removed for analysis. The aliquots were added to 1.5 mL microfuge tubes containing 0.7 mL Organic Counting Scintillant (OCS) (Amersham) and vortexed briefly. Scintillation analysis was performed using a Wallac 1409 Liquid Scintillation Counter (^3H efficiency≈70%). […] The effect on enzyme activity of metal co-factors with and without salts was also tested. Mg^2+ and Mn^2+ were added in the presence and absence of 50 mM KCL and 50 mM NaCl in all possible combinations. Controls included incubation without enzyme, with enzyme but without metal ion cofactors and with enzyme and cofactors in the presence of 10 mM EDTA. A further control comprising His6 purified pET-30a extract was also assayed to determine potential utilisation of FDP by co-purifying bacterial proteins. […] Kinetic constants were determined from the DPM data by nonlinear regression using the Origin50 graphics package.

As for `[Na+]` [Na^+], the “effect of added ions on activity” value is recorded as “little or no effect”.

Regarding `[K+]` [K^+], the “effect of added ions on activity” value is recorded as “little or no effect”.

In general, Km refers to the substrate concentration at which the rate is half of its maximum. Turning to `CC(C)=CCC/C(C)=C/CC/C(C)=C/CO[P@@](=O)(O)OP(=O)(O)O` (stereo in doubt) [FDP, farnesyl diphosphate], the Michaelis-Menten constant (Km) (saturating Mg2+, pH 7.5, 30 °C) was in the range of 1 to 2 µM.

B1: Germacrene D synthase: recombinant His6-tagged sesquiterpene synthase from Actinidia deliciosa petals, SEQ ID NO:2 (protein, listed as Actinidia deliciosa)
chain: MQLPCAQALPIPTVTTTTSIEPPHVTRRSANYHPSIWGDHFLAYSSDAMEEEVINMEQQQRLHHLKQKVRKMLEAAAEQSSQMLNLVDKIQRLGVSYHFETEIETALRHIYKTCDYHFDDLHTAALSFRLLRQQGYPVSCDMFDKFKNSKGEFQESIISDVQGMLSLYEATCLRIHGEDILDEALAFTITQLRSALPNLSTPFKEQIIHALNQPIHKGLTRLNARSHILFFEQNDCHSKDLLNFAKLDFNLLQKLHQRELCEITRWWKDLNFAKTLPFARDRMVECYFWILGVYFEPQYLLARRMLTKVIAMISIIDDIYDVYGTLEELVLFTDAIERWEISALDQLPEYMKLCYQALLDVYSMIDEEMAKQGRSYCVDYAKSSMKILVRAYFEEAKWFHQGYVPTMEEYMQVALVTAGYKMLATSSFVGMGDLATKEAFDWVSNDPLIVQAASVIGRLKDDIVGHKFEQKRGHVASAVECYSKQHGTTEEEAIIELDKQVTHSWKDINAECLCPIKVPMPLLARVLNLARVLYVIYQDEDGYTHPGTKVENFVTSVLIDSMPIN
modifications: His6 tag
For B1, the “decrease in enzyme activity” value is, setting by setting: (0.5 pH units lower than 7.5) 47%; (1 pH unit higher than 7.5) 59%. Besides, for the setting “16 °C”, the “activity relative to optimal temperature activity” value is on record as roughly 56%. In addition, the “activity at high temperature” value (50 °C) is on record as “Little or no activity”. The “Vrel in the absence of DTT” value (optimal conditions, without DTT) is recorded as roughly 53%. For the same molecule, the “temperature of maximum synthase activity” value (range 16-50 °C, 10 mM MgCl2, 10 μM FDP) came to 30 °C. Moreover, the pH optimum (tri-buffer system pH 5.7-9.5, 10 mM MgCl2, 10 μM FDP) stood at 7.5.
